Source: PMC12316515, “PIF4‐dependent 2‐hydroxymelatonin and 3‐hydroxymelatonin biosynthesis is involved in skotomorphogenic seedling growth in Arabidopsis thaliana”

T1: Trx-PIF4 (Arabidopsis thaliana, UniProt Q8W2F3 1-430)
T1 sequence: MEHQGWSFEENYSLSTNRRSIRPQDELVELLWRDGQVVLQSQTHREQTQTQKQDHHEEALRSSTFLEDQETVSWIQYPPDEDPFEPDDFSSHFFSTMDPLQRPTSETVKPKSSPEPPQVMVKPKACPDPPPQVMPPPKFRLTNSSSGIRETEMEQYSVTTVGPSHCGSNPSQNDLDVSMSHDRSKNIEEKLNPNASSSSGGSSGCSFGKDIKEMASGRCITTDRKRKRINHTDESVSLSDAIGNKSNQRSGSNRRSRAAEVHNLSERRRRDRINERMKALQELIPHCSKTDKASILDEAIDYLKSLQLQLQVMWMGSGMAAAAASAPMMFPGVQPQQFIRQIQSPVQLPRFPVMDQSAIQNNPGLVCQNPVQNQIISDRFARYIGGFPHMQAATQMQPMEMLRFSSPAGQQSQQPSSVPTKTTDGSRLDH


How the values were obtained:
purified protein = substrate: COc1ccc2[nH]cc(CCNC(C)=O)c2c1; assay: purified protein; details: pH 8.0, GST fusion protein, substrate not named beside the value, implied by M2H activity
Trx-PIF4 [1] = molecular target: T1, Trx-PIF4; assay: EMSA; LightShift Chemiluminescent EMSA Kit, 100 fmol biotin-labeled DNA, 20 min at room temperature, native 6% PAGE in 0.5x TBE; binding buffer, salt and pH not stated; details: protein: recombinant; tags: N-terminal Trx (pET32b); label: 3' biotin
Trx-PIF4 [2] = molecular target: T1, Trx-PIF4; assay: EMSA; greatest binding of the probes; LightShift Chemiluminescent EMSA Kit, 100 fmol biotin-labeled DNA, 20 min at room temperature, native 6% PAGE in 0.5x TBE; binding buffer, salt and pH not stated; details: protein: recombinant; tags: N-terminal Trx (pET32b); label: 3' biotin

Binder | binding result (Trx-PIF4 [1]) | further results
AtM2H (Arabidopsis melatonin 2-hydroxylase) (Arabidopsis thaliana) (protein) MEETNKSVVNDYFTSAMELTESGDPHVPTRYILPPSQRPMLGPSIGTSTINLPVIDLSFLHDPLLRLCVIHEIELACKGFGFFQVINHGISSAVVKDAQDSATRFFDLPADEKMHLVSDNFQEPVRYGTSINHSTDRVHYWRDFIKHYSHPLSNWINLWPSNPPCYKEKVGKYAEATHVLHKQLIEAISESLGLEKNYLQEEIEEGSQVMAVNCYPACPEPEIALGMPPHSDYGSLTILLQSSEGLQIKDCNNNWVCVPYIEGALIVQLGDQVEVMSNGIYKSVVHRVTVNKDYKRLSFASLHSLPMHKKISPATQLVNENKPAAYGEFSFNDFLDYISRNDITQKRFIDTLRKKNL |  | Km (purified protein): 355 µM
M2H E2 (dsDNA) DNA 1: GATGACTATTTTCATTTGATAATATATCCA DNA 2: TGGATATATTATCAAATGAAAATAGTCATC | binds | 
M3H E3 (dsDNA) DNA 1: CAATGTTAAAGACACATGAACGTTGGGATA DNA 2: TATCCCAACGTTCATGTGTCTTTAACATTG |  | binding result (Trx-PIF4 [2]): binds
M3H E1/E2 (dsDNA) DNA 1: CATACCATATGTCTTTTATCATCTGTCCTT DNA 2: AAGGACAGATGATAAAAGACATATGGTATG | binds | 
